Measurements published in patent US20210188994A1.

Target: His-tagged FcγRIIIa recombinant protein (UniProt P08637)
Assay: SPR (BIACORE X100), His-tagged FcγRIIIa captured on anti-His CM5 chip, antibody as analyte, 1:1 Langmuir fit

Sequence of UniProt P08637 (P08637 17-208 limits assumed): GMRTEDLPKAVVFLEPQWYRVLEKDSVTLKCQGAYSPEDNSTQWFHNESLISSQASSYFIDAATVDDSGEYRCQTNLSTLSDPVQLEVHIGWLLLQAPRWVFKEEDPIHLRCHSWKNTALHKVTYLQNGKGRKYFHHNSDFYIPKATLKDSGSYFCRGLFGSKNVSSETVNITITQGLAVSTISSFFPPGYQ

A Kd of 39.9 nM, a koff of 0.0069 s⁻¹ and a kon of 173000 M⁻¹ s⁻¹ were found for “GAZYVA (obinutuzumab), commercial afucosylated anti-CD20 antibody” in this work.
